Source: the DeepSol protein solubility set

Assay: soluble on expression in E. coli; label from the status in PepcDB or PDB records

Row | Sequence | soluble on expression in E. coli
1 | MGHHHHHHSHGPRDIISPELMADYLQPKLLGILAFFNMQLLSSSVGIEDKKMALNSLMSLMKLMGPKHVSSVRVKMMTTLRTGLRFKDDFPELCCRAWDCFVRCLDHACLGSLLSHVIVALLPLIHIQPKETAAIFHYLIIENRDAVQDFLHEIYFLPDHPELKKIKAVLQEYRKETSEST | not soluble
2 | MGHHHHHHSHIPFDYIVEKTVSTGVLVDVIGALLEVGNLTEDYRGLKLPFKIMDQYKEVLQCEAHNDQALEFQRFFQRLTGPQNVIALVSWRLSGIYKLKTLSNDPISKVIANPDIPEVEEIRVVVY | not soluble
3 | MGHHHHHHSHMAICQFFLQGRCRFGDRCWNEHPGARGAGGGRQQPQQQPSGNNRRGWNTTSQRYSNVIQPSSFSKSTPWGGSRDQEKPYFSSFDSGASTNRKEGFGLSENPFASLSPDEQKDEKKLLEGIVKDMEVWESSGQWMFSVYSPVKKKPNISGFTDISPEELRLEYHNFLTSNNLQSYLNSVQRLINQWRNRVNELKSLNISTKVALKCLWKIYTHLSPKIYGPDCAL | not soluble
4 | MGHHHHHHSHMATGTPESQARFGQSVKGLLTEKVTTCGTDVIALTKQVLKGSRSSELLGQAARNMVLQEDAILHSEDSLRKMAIITTHLQYQQEAIQKNVEQSSDLQDQLNHLLK | not soluble
5 | MGHHHHHHSHMCYNRESNFANQTIDFYCYTEYNGFMTTKGANVMTEVEMKEQVQEVLDKLRPFLLRDGGDCELVDVDEGIVKLRLLGACGSCPSSTITLKAGIERALLEEVPGVVEVEQVF | soluble
6 | MGHHHHHHSHMDAIHKQKSLQFKKTMDAKKNYEQKCRDKDEAEQAVSRSANLVNPKQQEKLFVKLATSKTAVEDSDKAYMLHIGTLDKVREEWQSEHIKACEAFEAQECERINFFRNALWLHVNQLSQQCVTSDEMYEQVRKSLEMCSIQRDIEYFVNQRKTGQIPPAPIMHENFYSSQKNAVPAGKATGPNLARRGPLPIPKSSPDDPNYSLVDDYSLLYQ | not soluble
7 | MGHHHHHHSHMDALEGESFALSFSSASDAEFDAVVGYLEDIIMDDEFQLLQRNFMDKYYLEFEDTEENKLIYTPIFNEYISLVEKYIEEQLLQRIPEFNMAAFTTTLQHHKDEVAGDIFDMLLTFTDFLAFKEMFLDYRAEKEGRGLDLSSGLVVTSLCKSSSLPASQNNLRH | soluble
8 | MGHHHHHHSHMDEGVKEKFIGAVLGAAVGDALGKSVEDITEEEVFEFYGDRIRDFVTPHPSSPAYGQLPEETSDETTIFRLLLESLVEKKALDVRDFLNRLMEWYDREEMHRYPDPMLLTAIDLLSRGINPSTHGLTSFSVEGILRSVALGLYHYYNPELAAEGSKVVSLLTHRSDVISDASAILGALIAHLVRGDFYLEDFREKLRLIETLKDYAKEEKHKKILDRVAELLMESADLETAINTLGNGTFAFEAFPLALYIFLSNVENPEEALFQAVNSYGEFGGDTDAIGFLVGAMLGAYYGEEAIPYHLRENVENSQKLRELAERLYEVVEKQVGFSQ | soluble
9 | MGHHHHHHSHMDQEMRVKRLESEKQELQEQLDLQHKKCQEANQKIQELQASQEARADHEQQIKDLEQKLSLQEQDAAIVKNMKSELVRLPRLERELKQLREESAHLREMRETNGLLQEELEGLQRKLGRQEKMQETLVGLELENERLLAKLQSWERLDQTMGLSIRTPEDLSRFVVELQQRELALKDKNSAVTSSARGLEKARQQLQEELRQVSGQLLEERKKRETHEALARRLQKRVLLLTKERDGMRAILGSYDSELTPAEYSPQLTRRMREAEDMVQKVHSHSAEMEAQLSQALEELGGQKQRADMLEMELKMLKSQS | soluble
10 | MGHHHHHHSHMERFVVTAPPARNRSKTALYVTPLDRVTEFGGELHEDGGKLFCTSCNVVLNHVRKSAISDHLKSKTHTKRKAEFEEQNVRKKQRPLTASLQCNSTAQTEKVSVIQDFVKMCLEANIPLEKADHPAVRAFLSRHVKNGGSIPKSDQLRRTYLPDGYENENQLLNSQDC | soluble
11 | MGHHHHHHSHMEWKVKIRSDGTRYITKRPVRDRILKERALKIKEERSGMTTDDDTMSEMKMGRYWSKEERKQHLVRAKEQRRRREFMMRSRLECLKESPQSGSEGKKEINIIELSHKKMMKKRNKKILDNWMTIQELMTHGAKSPDGTRVHNAFLSVTTV | not soluble
12 | MGHHHHHHSHMFFKQFYDKHLSQASYLIGCQKTGEAMIIDPIRDLSSYIRVADEEGLTITHAAETHIHADFASGIRDVAIKLNASIYVSGESDDTLGYKNMPNQTHFVQHNDDIYVGNIKLKVLHTPGHTPESISFLLTDEGAGAQVPMGLFSGDFIFVGDIGRPDLLEKAVKVEGSSEIGAKQMFKSIESIKDLPNYIQIWPGHGAGSPCGKSLGAIPTSTLGYEKQTNWAFSENNEATFIDKLISDQPAPPHHFAQMKKINQFGMNLYQPYTVYPATNTNRLTFDLRSKEAYHGGHIEGTINIPYDKNFINQIGWYLNYDQEINLIGEYHLVSKATHTLQLIGYDDVAGYQLPQSKIQTRSIHSEDITGNESHILDVRNDNEWNNGHLSQAVHVPHGKLLETDLPFNRNDVIYVHCQSGIRSSIAIGILEHKGYHNIINVNEGYKDIHLS | not soluble
13 | MGHHHHHHSHMFPCQHCERKFTTKQGLERHMHIHISTVNHAFKCKYCGKAFGTQINRRRHERRHEAGLKRKPSQ | soluble
14 | MGHHHHHHSHMGTNDEDELSLGLPTELKRKKEQLDGGHRPSKETQSAAGLTLPLNSDQTFHLMSNLAGDVITAAVTAAIKDQLEGVQQALSQAAPIPEEDTDTEEGDDFELLDQSELDQIESELGLTQDQEAEAQQNKKSSGFLSNLLGGH | soluble
15 | MGHHHHHHSHMHDSANCELPLLTPCSKAVMSQALKATFSGFKKEQRRLGIPKNPWLWSEQQVCQWLLWATNEFSLVNVNLQRFGMNGQMLCNLGKERFLELAPDFVGDILWEHLEQMIKENQEKTE | not soluble
16 | MGHHHHHHSHMKYYRRALYDKFVHFYLVISDDGSSEAQLRGKMGGLVRKARKKISPDWPKEEQIHQLLQLFYGDWGFHCDPEDYFYARNLYLPYVFEHRQGMPVTLGAMVFYLAEALDLPIYPVNFPTQLILRAEVRDEVAFIDPWDGTYISQEKLQQLYEGAFGFGAKIQPEELDRADLSLLYSRFEQLAKNALIREEHNDMAYHYIKNLMITDAENPYHIRDRGLVLAQMGAYPSALKDLEFFVEHCPKDPTAAFIRTQLLELKGEINKDTFPLH | soluble
17 | MGHHHHHHSHMLFSRIFMAGAPKFIKQLLLDLRNEIYCTILIVGDFNAPLTALDRSSRQKVHKETMGLHCILEQMDLTYIYRTFHPTTAEYTLFSSAHGTFFKIDHIIGHENKSQ | not soluble
18 | MGHHHHHHSHMNGFSTEEDSREGPPAAPAAAAPGYGQSCCLIEDGERCVRPAGNASFSKRVQKSISQKKLKLDIDKSVRHLYICDFHKNFIQSVRNKRKRKTSDDGGDSPEHDTDIPEVDLFQLQVNTLRRYKRHYKLQTRPGFNKAQLAETVSRHFRNIPVNEKETLAYFIYMVKSNKSRLDQKSEGGKQLE | soluble
19 | MGHHHHHHSHMPKVKRSRKAPPDGWELIEPTLDELDQKMREAETEPHEGKRKVESLWPIFRIHHQKTRYIFDLFYKRKAISRELYEYCIKEGYADKNLIAKWKKQGYENLCCLRCIQTRDTNFGTNCICRVPKSKLEVGRIIECTHCGCRGCSG | soluble
20 | MGHHHHHHSHMQNADDFIKFLELEQHVEGGFYRSSYRSETAFDPSRQLWSSIYFLLRTGEVSHFHRLTADEMWYFHAGQSLTIYMISPEGELTTAQLGLDLAAGERPQFLVPKGCIFGSAMNQDGFSLVGCMVSPGFTFDDFELFSQEALLAMYPQHKAVVQKLSRPEVN | soluble
21 | MGHHHHHHSHMREPWLFGEEHTRLIREAIRERYGLLPYWYSLFYHAHVASQPVMRPLWVEFPDELKTFDMEDEYMLGSALLVHPVTEPKATTVDVFLPGSNEVWYDYKTFAHWEGGCTVKIPVALDTIPVFQRGGSVIPIKTTV | soluble
22 | MGHHHHHHSHMRVFIIHLSPKTCQNFSLKETHITPLLESLKLQGISYEIFDAIYSKISPTQLHPLILEHLHPSFMVEDLWAFCKNKKHPPCALKNFFYAIKHCGKRMGFGELGCYASHYSLWQKCIELNEAICILEDDIIIKDRFKESLEFCRHHINELGYIRLMHLEENVAKQKTPVKGVSQILNFKDGIGTQGYVLAPKAAQKLLKYSAKEWVMPIDCVMDRHYWHGVKNYVLEEFAIACDGMNAQNSNTEKQRPKKLPLSIRIGRSLHKSTIKFLDKVFRYSPKLIRIGKH | soluble
23 | MGHHHHHHSHMSDWEDDDFEPEVSTFKRAEPAPEPVKIVDAPPPPQKAAPAAPKTLKAAPTFAMESLGRELTSAEKEAIQKKNDLALARDLFGDDDSAEATDEAKTYANIMSKADFEYWGERVGGFLASRSKASCYGDMIGKLLTSVTDEMTPAEILKMVTFLQQISAAKKTAEKTKAKATTAAKPAAAANKKNAKATLKVTKGNDSMYDDYGDDQDDYDDY | soluble
24 | MGHHHHHHSHMSEETATSDNDNSYARVRAVVMTRDDSSGGWLPLGGSGLSSVTVFKVPHQEENGCADFFIRGERLRDKMVVLECMLKKDLIYNKVTPTFHHWKIDDKKFGLTFQSPADARAFDRGIRRAIEDISQGCPESK | soluble
25 | MGHHHHHHSHMSGTEEAILGGRDSHPAAGGGSVLCFGQCQYTAEEYQAIQKALRQRLGPEYISSRMAGGGQKVCYIEGHRVINLANEMFGYNGWAHSITQQNVDFVDLNNGKFYVGVCAFVRVQLKDGSYHEDVGYGVSEGLKSKALSLEKARKEAVTDGLKRALRLPLLGVSGRILYSLFSVHSVMCAGGLPTPTASAQTAPSSPCSSAVLRYAQEFWECTWKLYSGQRLPEITK | not soluble
26 | MGHHHHHHSHMTATVENLTFQKDTLGNAVDKNRRHGSTEPLVLAWSSQFRRLTWGCALDALHRSPCVAASQHGVTHLIRSSRTPHSTRCRKEDAQPGHHGNGAASVTAQARGQR | not soluble
27 | MGHHHHHHSHMTLQALSEANRRLWMEAMDGKEPIYHSPITKQQEMELNEVGFKFVRKCINIIETKGIKTEGLYRTVGSNIQVQKLLNAFFDPKCPGDVDFHNSDWDIKTITSSLKFYLRNLSEPVMTYRLHKELVSAAKSDNLDYRLGAIHSLVYKLPEKNREMLELLIRHLVNVCEHSKENLMTPSNMGVIFGPTLMRAQEDTVAAMMNIKFQNIVVEILIEHFGKIYLGPPEESAAPPVPPPRVTARRHKP | not soluble
28 | MGHHHHHHSHMTTNSLLIIDFEFTMPDGKYSPQNFFPEIIEAGIVKSIDDEVVETFSSYVRPKKFPKLTKRCKSFLKITQKQVDEGMRFEDFIRKLNELDPEKNSTIITWGNMDMKVLKQNCMFNHIPFPFKGEMRDLSLEYKNFFGDRTLTGLWKAAEEYGDSGTGTHHKALDDALTAYKLFKLVEQDKQYLEKPKPPTIGERIDLTELLKRAT | soluble
29 | MGHHHHHHSHSEVAIKIDFDFAPGSFDDQYQGCSKQVMEKLTQGDYFTKDIEAQKNYFRMWQKAHLAWLNQGKVLPQNMTTTHAVAILFYTLNSNVHSDFTRAMASVARTPQQYERSFHFKYLHYYLTSAIQLLRKDSIMENGTLCYEVHYRTKDVHFNAYTGATIRFGQFLSTSLLKEEAQEFGNQTLFTIFTCLGAPVQYFSLKKEVLIPPYELFKVINMSYHPRGNWLQLRSTGNLSTYNCQLLKASSKKCIPDPIAIASLSFLTSVIIFSKSRV | not soluble
